Results on 7 molecules are retold here after paper PMC9150345, “Trimeric complexes of Antp-TBP with TFIIEβ or Exd modulate transcriptional activity” (Hereditas, 2022).

The target in assay [1] is T1, TATA-binding protein (hTBP), fused to the N-terminal fragment of Venus (human, UniProt P20226 1-339).
T1 construct: also called VNTBP; source: HEK293, transfected, in living cells
Description: split reporter (BiFC, NanoBiT); BiFC in HEK293 cells co-transfected with VC- and VN- constructs and pCAG-mCherry; read 48 h after transfection; interaction percent = green cells per 100 red cells. The note with it: partners not purified.

The target of assay [2] is T2, hTBPΔQ40, hTBP lacking the Poly-glutamine region (amino acids 50-102), fused to the N-terminal fragment of … (human, UniProt P20226 1-339, lacking the Poly-glutamine region (amino acids 50-102)).
T2 construct: made by site-directed mutagenesis; source: HEK293, transfected, in living cells
T2 sequence (looked up): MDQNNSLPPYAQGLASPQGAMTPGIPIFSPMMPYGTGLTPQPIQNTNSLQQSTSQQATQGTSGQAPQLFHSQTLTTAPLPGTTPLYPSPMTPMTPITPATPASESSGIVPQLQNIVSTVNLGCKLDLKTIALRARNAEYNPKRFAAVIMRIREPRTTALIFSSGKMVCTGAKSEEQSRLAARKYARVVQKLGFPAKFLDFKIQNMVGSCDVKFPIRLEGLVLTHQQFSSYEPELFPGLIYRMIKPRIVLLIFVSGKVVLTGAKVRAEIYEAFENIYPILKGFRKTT
The assay is described as above. As to conditions: partners not purified.

B1: AntpQ9, Antp with deletion of the 9-polyQ stretch (amino acids 110-118), fused to the C-terminal fragment of Venus (natural protein)
chain: not shown
notes: Antennapedia (Antp) with deletion of the 9-polyQ stretch (amino acids 110-118); source: HEK293, transfected, in living cells
On to B1, for which the “percent of transfected cells showing BiFC” value (“percent” below) in assay [1] turned out to be 57%.

B2: AntpΔPolyQ, Antp with deletion of PolyQ regions (amino acids 66-136), fused to the C-terminal fragment of Venus (natural protein)
chain: not shown
notes: Antennapedia (Antp) with deletion of PolyQ regions (amino acids 66-136); source: HEK293, transfected, in living cells
Turning to B2, the “percent” value in assay [1] amounted to 51%.

B3: Antennapedia (Antp), fused to the C-terminal fragment of Venus (natural protein)
chain: not shown
notes: Antennapedia (Antp) Hox protein; also called VCAntp; Antp WT; source: HEK293, transfected, in living cells
As to B3, the entries for the “percent” value in assay [2] and in assay [1] were 41% and 77%, respectively.

B4: AntpQ5, Antp with the 5-polyQ stretch mutagenized to alanines (amino acids 123-127), fused to the C-terminal fragment of Venus (natural protein)
chain: not shown
notes: Antennapedia (Antp) in which the 5-polyQ stretch was mutagenized to alanines (amino acids 123-127); source: HEK293, transfected, in living cells
Consider B4, for which, in assay [1], the “percent” value is 74%.

B5: AntpQ6, Antp with deletion of three glutamines (amino acids 150-152) and substitution of three glutamines to alanines (amino acids 153-155), fused to the … (natural protein)
chain: not shown
notes: Antennapedia (Antp) with deletion of three glutamines (150-152) and three glutamines changed to alanines (153-155); source: HEK293, transfected, in living cells
B5: the “percent” value in assay [1] came to 63%.

B6: AntpΔN, Antp lacking the N-terminal region (amino acids 1-269), fused to the C-terminal fragment of Venus (domain or fragment)
chain: not shown
notes: Antennapedia (Antp) lacking the N-terminal region (amino acids 1-269); source: HEK293, transfected, in living cells
As for B6, the “percent” value turned out to be 14% in assay [2] and 51% in assay [1].

B7: AntpΔHD, Antp without the YPWM motif and homeodomain (amino acids 245-363), fused to the C-terminal fragment of Venus (natural protein, Drosophila, UniProt P02833 1-378, looked up)
chain: MTMSTNNCESMTSYFTNSYMGADMHHGHYPGNGVTDLDAQQMHHYSQNANHQGNMPYPRFPPYDRMPYYNGQGMDQQQQHQVYSRPDSPSSQVGGVMPQAQTNGQLGVPQQQQQQQQQPSQNQQQQQAQQAPQQLQQQLPQVTQQVTHPQQQQQQPVVYASCKLQAAVGGLGMVPEGGSPPLVDQMSGHHMNAQMTLPHHMGHPQAQLGYTDVGVPDVTEVHQNHHNMGMYQQQSGVPPVGAPPSGGEGDEITPPNSPQ
notes: Antennapedia (Antp) without the HD (amino acids 245-363); the text calls it the YPWM-HD deletion; source: HEK293, transfected, in living cells
On to B7, for which the “percent” value in assay [1] was found to be 74%.
